± gives the half width of the 95% confidence interval.

The nature of data set [1]: folding stability dG unfold from trypsin proteolysis; higher = more stable. The essentials: (§1)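 Unfolding free energy was derived, per protease or combined, by relating Bayesian-fitted K50 values from sequencing counts to a sequence-predicted unfolded-state K50 and a shared folded-state K50. The underlying digests exposed cysteine-free mini-proteins under 80 residues, in a PA-tagged cDNA display construct, to trypsin and chymotrypsin at 11 threefold-diluted concentrations and to a no-protease condition. A filter kept only designs with AlphaFold2 dimer inter-PAE above 15.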

A short description of data set [2]: folding stability dG unfold from chymotrypsin proteolysis; higher = more stable. In a few lines: as §1
The nature of data set [3]: folding stability dG unfold (combined trypsin and chymotrypsin); higher = more stable. In a few lines: as §1

Regarding “SAGGSAGGSAGGKTIVIEVKEEDIEEIIEAAKKAGADEVIIYNKKTNKKYKIKDGKIEPVSAGGSAGGSAGG [r7_564_TrROS_Hall]”, the “folding stability dG unfold” value turned out to be 5.62 ± 0.134 kJ/mol in data set [1], 8.45 ± 0.188 kJ/mol in data set [2] and 7.59 ± 0.418 kJ/mol in data set [3].
Taken in the same sequence, the figures for “SAGGSAGGSAGGKTIVLLDEETNELVTIEIDEETGEVKITVVRLKDGKLETKTETIKLPSAGGSAGGSAGGS [r10_756_TrROS_Hall]” were 8.1 ± 0.381 kJ/mol, 9.31 ± 0.879 kJ/mol and 8.65 ± 0.795 kJ/mol.
Taken in the same sequence, the figures for “SAGGSAGGSAGGKTLKLTLTLKVEVKETVTTTTADGTTEERPVKEVEVKLTATIDLSDLSAGGSAGGSAGGS [r10_355_TrROS_Hall]” were 12.7 ± 1 kJ/mol, 18.3 ± 0.837 kJ/mol and 16.7 ± 1.26 kJ/mol.
As for “SAGGSAGGSAGGKTVVLFVDPKTKKVYILYPDGKIETLSPEELKNKPIIVKPVKLHPKAGSAGGSAGGSAGG [r7_98_TrMRF]”, the “folding stability dG unfold” value came to 3.42 ± 0.1 kJ/mol in data set [1], 7.77 ± 0.222 kJ/mol in data set [2] and 6.54 ± 0.222 kJ/mol in data set [3].
In the case of “SAGGSAGGSAGGKTYTAEELRKKLPPGAVIRLKNGKKYEIKEGDKIKKGDKIEIVPKKDLSAGGSAGGSAGG [r7_507_TrROS_Hall]”, the results for the “folding stability dG unfold” value in data set [1], in data set [2] and in data set [3] were -1.44 ± 1.34 kJ/mol, 1.55 ± 0.586 kJ/mol and 0.754 ± 0.544 kJ/mol, respectively.
As for “SAGGSAGGSAGGKVGPGTTVTIVEVEVVGSKINPLGLVTTDFVVKKVEVVEVEKGADLKSAGGSAGGSAGGS [r10_826_JUSTAS]”, the “folding stability dG unfold” value is 2.04 ± 0.172 kJ/mol in data set [1], -3.24 ± 1.72 kJ/mol in data set [2] and 0.272 ± 0.502 kJ/mol in data set [3].
Taken in the same sequence, the figures for “SAGGSAGGSAGGKVHPDQPVKLRLTFTVSGVYYDENKPRVETKPVTVEFTALAPDEDALSAGGSAGGSAGGS [r10_745_TrMRF]” were 0.227 ± 0.502 kJ/mol, 0.87 ± 0.711 kJ/mol and 0.773 ± 0.293 kJ/mol.
For the sequence “SAGGSAGGSAGGKVIDSEEFRNNFPSGGVLVDNNGNLYLVGNNYPIDPNQPFLYVSPDEISAGGSAGGSAGG [r7_507_TrMRF]”, the “folding stability dG unfold” value is 4.01 ± 0.36 kJ/mol in data set [1], 6.51 ± 0.711 kJ/mol in data set [2] and 5.14 ± 0.92 kJ/mol in data set [3].
Turning to “SAGGSAGGSAGGKVIVKEITINEDGTVTIKGEIFDENGELIAEAEFKFRLGDGGPIEFESAGGSAGGSAGGS [r10_484_TrMRF]”, the “folding stability dG unfold” value in data set [1] was found to be 9.14 ± 0.753 kJ/mol; in data set [2], 10.3 ± 0.0879 kJ/mol; in data set [3], 9.63 ± 0.669 kJ/mol.
Regarding “SAGGSAGGSAGGKVTKVILYPLPGGKVRLIIYGDDGKPYFFETSFEDLKNFPNIPFIILPSAGGSAGGSAGG [r7_238_TrMRF]”, the “folding stability dG unfold” value in data set [1] was 9.18 ± 0.289 kJ/mol; in data set [2], 9.51 ± 0.205 kJ/mol; in data set [3], 8.83 ± 0.305 kJ/mol.
For “SAGGSAGGSAGGKYKIKEIKVEEVDGKKYVKLVIYDKNGKPVKTIVMSLEELKKLPPELLSAGGSAGGSAGG [r7_263_TrROS_Hall]”, in that order: 6.48 ± 0.172 kJ/mol, 9.92 ± 0.502 kJ/mol and 7.89 ± 0.92 kJ/mol.
Regarding “SAGGSAGGSAGGLGLDLPVFPVKTTTSSSTVPLPNGQTVTVTTTTTTFPGSSSTTTTTTGSAGGSAGGSAGG [r17_59_JUSTAS]”, the “folding stability dG unfold” value in data set [1] stood at 4.26 ± 0.13 kJ/mol; in data set [2], 6.13 ± 0.155 kJ/mol; in data set [3], 5.48 ± 0.155 kJ/mol.
Taken in the same sequence, the figures for “SAGGSAGGSAGGLGPDEKPKVKYLALIYDPETGEVTVVPADKLDKVLKETDASVSLFPVSAGGSAGGSAGGS [r10_1121_TrMRF]” were 1.47 ± 0.418 kJ/mol, 1.68 ± 0.418 kJ/mol and 2.36 ± 0.837 kJ/mol.
For “SAGGSAGGSAGGLKPGEKLVFKTETKTLKLKAKVFNKDTGEEFEVEVELTVTRIEVYPLSAGGSAGGSAGGS [r10_1116_TrROS_Hall]”, in that order: 12.7 ± 1.3 kJ/mol, 20.8 ± 0.92 kJ/mol and 20 ± 1.38 kJ/mol.
As to “SAGGSAGGSAGGLPPGDKLKPVASWPIWAMFPVTYKGPDGELPFNIMIPIRIEIWKPDDSAGGSAGGSAGGS [r10_758_TrROS]”, the “folding stability dG unfold” value in data set [1] came to 9.33 ± 0.364 kJ/mol; in data set [2], 11.19 ± 0.092 kJ/mol; in data set [3], 10.4 ± 0.418 kJ/mol.
As for “SAGGSAGGSAGGMATTTTKIEIYPGTGKVKTTTTVTDPSTGTTTTTTTTEETSLEELTSSAGGSAGGSAGGS [r10_173_JUSTAS]”, the “folding stability dG unfold” value in data set [1] was -0.013 ± 0.209 kJ/mol; in data set [2] it was 2.75 ± 0.343 kJ/mol; in data set [3] it was 1.44 ± 0.544 kJ/mol.
Regarding “SAGGSAGGSAGGMEEIRELLEKAKKEGLESITVTVNDPAEATEVRAYAEEKGIPVTINASAGGSAGGSAGGS [r10_307_JUSTAS]”, the “folding stability dG unfold” value was 1.74 ± 0.201 kJ/mol in data set [1], -4.22 ± 2.34 kJ/mol in data set [2] and -0.146 ± 0.669 kJ/mol in data set [3].
As for “SAGGSAGGSAGGMEFELEDGGYVKVELELSEDGELVARVEFFNENGEPVAEIEVPLEEILSAGGSAGGSAGG [r7_660_TrMRF]”, the entries for the “folding stability dG unfold” value in data set [1], in data set [2] and in data set [3] were 6.82 ± 0.502 kJ/mol, 7.38 ± 0.259 kJ/mol and 7.36 ± 0.544 kJ/mol, respectively.
For the sequence “SAGGSAGGSAGGMEIEFEKAKFEIEEIDPEKGKIKVKFPGLEKEFEIEFDKKGKIVKISGSAGGSAGGSAGG [r7_553_TrMRF]”, the figures for the “folding stability dG unfold” value in data set [1], in data set [2] and in data set [3] were 0.953 ± 0.238 kJ/mol, 4.01 ± 0.151 kJ/mol and 2.56 ± 0.502 kJ/mol, respectively.
As to “SAGGSAGGSAGGMEVEYNPEELSPESEVTITVTLPGGEKVELKAKIYTNPDGSLSYELESAGGSAGGSAGGS [r10_390_JUSTAS]”, the “folding stability dG unfold” value in data set [1] was 2.91 ± 0.197 kJ/mol; in data set [2], 6.63 ± 0.146 kJ/mol; in data set [3], 5.44 ± 0.222 kJ/mol.
As for “SAGGSAGGSAGGMEVKVEEFVENGKPVVREFYPDSIKVTTYTFDENGNVTEKKEYVIPKESAGGSAGGSAGG [r7_722_JUSTAS]”, the “folding stability dG unfold” value in data set [1] came to 1.73 ± 0.255 kJ/mol; in data set [2], 3.85 ± 0.628 kJ/mol; in data set [3] it was 2.89 ± 0.711 kJ/mol.
In the case of “SAGGSAGGSAGGMEVVIPLDKNERYLAYVLGEPKFVEFDPEKGYLVIPNTPPENVIVVKYSAGGSAGGSAGG [r7_200_TrMRF]”, the “folding stability dG unfold” value in data set [1] amounted to 1.04 ± 0.209 kJ/mol; in data set [2], 1.75 ± 0.628 kJ/mol; in data set [3], 1.36 ± 0.418 kJ/mol.
Taken in the same sequence, the figures for “SAGGSAGGSAGGMFKTYDSLEDVKKNETGDGAKGKVFVVAPIPELENAVLVLVEIRPPDSAGGSAGGSAGGS [r10_126_TrMRF]” were -0.916 ± 0.289 kJ/mol, 2.11 ± 0.46 kJ/mol and 0.965 ± 0.368 kJ/mol.
As for “SAGGSAGGSAGGMFLIKLPNGKVLLFESEEEAKAALEELTGKPVDLENLEIVPLPEEELSAGGSAGGSAGGS [r10_62_TrROS_Hall]”, the entries for the “folding stability dG unfold” value in data set [1], in data set [2] and in data set [3] were 15.3 ± 0.586 kJ/mol, 13.1 ± 0.188 kJ/mol and 13.8 ± 0.46 kJ/mol, respectively.
Consider “SAGGSAGGSAGGMFYIKNEKGEVFPFTSLEEFLKQLEEKTGKPVKLNNIVIYPAAPHSLSAGGSAGGSAGGS [r10_62_TrMRF]”, for which the “folding stability dG unfold” value in data set [1] was 4.37 ± 0.176 kJ/mol; in data set [2], 7.59 ± 0.628 kJ/mol; in data set [3] it was 7.13 ± 1.13 kJ/mol.
For “SAGGSAGGSAGGMGINVTVSEEVSVLPDPSVVRVTTTTKTPDGTTTVTEEVIPGPEELESAGGSAGGSAGGS [r10_1221_JUSTAS]”, the “folding stability dG unfold” value is -0.627 ± 0.188 kJ/mol in data set [1], 6.15 ± 0.414 kJ/mol in data set [2] and 5.01 ± 0.314 kJ/mol in data set [3].

Source of the values: the supplement of paper PMC12764529.
